This is an account of results in patent publication US20130195871A1 (AbbVie / Abbott, published 2013).

One assay addresses T1, Recombinant Human IGF1R (human, UniProt P08069 31-932).
T1 construct: bought reagent
The assay is described as follows: SPR (Biacore), N-terminal VD.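 Note: capture of antibodies or DVD-Ig proteins on an anti-mouse IgG chip surface, recombinant antigen injected at 10–200 nM in HBS-EP running buffer at 25 °C.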

Assay [1] has as its target T2, Recombinant Human MSP Receptor ECD-His tag (human, UniProt Q04912 25-957).
T2 construct: extracellular domain; bought reagent; also called RON
The experiment in a line: SPR (Biacore), C-terminal VD.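 Note: surface plasmon resonance with DVD-Ig proteins captured on an anti-IgG chip and recombinant antigen flowed over in HBS-EP buffer, Langmuir global fit, KD taken as koff/kon.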

The next assay has as its target T3, EGFR on the cell surface (human, UniProt P00533 25-1210).
T3 construct: whole, on cells
The assay is described as follows: flow cytometry on cells, 2 ug/mL, N-terminal VD.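 Note: cells stained for 30 to 60 min on ice.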

Assay [2] concerns the target T2, Recombinant Human MSP Receptor ECD-His …. The experiment in a line: SPR (Biacore).
Procedure: The BIACORE assay (Biacore, Inc, Piscataway, N.J.) determined the affinity of antibodies or DVD-Ig proteins with kinetic measurements of on-rate and off-rate constants. Binding of antibodies or DVD-Ig proteins to a target antigen (for example, a purified recombinant target antigen) was determined by surface plasmon resonance-based measurements with a Biacore® 1000 or 3000 instrument (Biacore AB, Uppsala. Sweden) using running HBS-EP (10 mM HEPES [pH 7.4], 150 mM NaCl, 3 mM EDTA, and 0.005% surfactant P20) at 25° C. […] For example, approximately 5000 RU of goat anti-mouse IgG, (Fcγ), fragment specific polyclonal antibody (Pierce Biotechnology Inc, Rockford, Ill.) diluted in 10 mM sodium acetate (pH 4.5) was directly immobilized across a CM5 research grade biosensor chip using a standard amine coupling kit according to manufacturer's instructions and procedures at 25 μg/ml. Unreacted moieties on the biosensor surface were blocked with ethanolamine. Modified carboxymethyl dextran surface in flowcell 2 and 4 was used as a reaction surface. Unmodified carboxymethyl dextran without goat anti-mouse IgG in flow cell 1 and 3 was used as the reference surface. For kinetic analysis, rate equations derived from the 1:1 Langmuir binding model were fitted simultaneously to association and dissociation phases of all eight injections (using global fit analysis) with the use of Biaevaluation 4.0.1 software. Purified antibodies or DVD-Ig proteins were diluted in HEPES-buffered saline for capture across goat anti-mouse IgG specific reaction surfaces. Antibodies or DVD-Ig proteins to be captured as a ligand (25 μg/ml) were injected over reaction matrices at a flow rate of 5 μl/minute. The association and dissociation rate constants, kₒₙ (M⁻¹s⁻¹) and koff (s⁻¹) were determined under a continuous flow rate of 25 μl/minute. Rate constants were derived by making kinetic binding measurements at different antigen concentrations ranging from 10-200 nM. The equilibrium dissociation constant (M) of the reaction between antibodies or DVD-Ig proteins and the target antigen was then calculated from the kinetic rate constants by the following formula: KD=koff/kₒₙ. Binding was recorded as a function of time and kinetic rate constants were calculated.

Procedure for EGFR on the cell surface: Stable cell lines overexpressing a cell-surface antigen of interest or human tumor cell lines were harvested from tissue culture flasks and resuspended in phosphate buffered saline (PBS) containing 5% fetal bovine serum (PBS/FBS). Prior to staining, human tumor cells were incubated on ice with (100 μl) human IgG at 5 μg/ml in PBS/FCS. 1-5×10⁵ cells were incubated with antibody or DVD-Ig (2 μg/mL) in PBS/FBS for 30-60 minutes on ice. […] After 30 minutes incubation on ice, cells were washed twice and resuspended in PBS/FBS. Fluorescence was measured using a Becton Dickinson FACSCalibur (Becton Dickinson, San Jose, Calif.).
The geometric mean is the n root of the multiplication product of n fluorescent signals (a1×a2×a3 . . . an). With log-transformed data the geometric mean is used to normalize the weighting of the data distribution.

B1: DVD2327 (bispecific antibody)
VH: EVQLLESGGGLVQPGGSLRLSCTASGFTFSSYAMNWVRQAPGKGLEWVSAISGSGGTTFYADSVKGRFTISRDNSRTTLYLQMNSLRAEDTAVYYCAKDLGWSDSYYYYYGMDVWGQGTTVTVSSASTKGPEVQLVQSGGGLVKPGGSLRLSCAASGFTFSSYAMHWVRQAPGKGLEWVAVISYDGSNKYYADSVKGRFTISRDNSKNTLYLQMNSLRAEDTAVYYCARFSGWPNNYYYYGMDVWGQGTTVTVSS
VL: DIQMTQFPSSLSASVGDRVTITCRASQGIRNDLGWYQQKPGKAPKRLIYAASRLHRGVPSRFSGSGSGTEFTLTISSLQPEDFATYYCLQHNSYPCSFGQGTKLEIKRTVAAPDVVMTQSPLSLPVTPGEPASISCRSSQSLLHSNGFNYVDWYLQKPGQSPHLLIYFGSYRASGVPDRFSGSGSGTDFTLKISRVEAEDVGVYYCMQALQTPPWTFGQGTKVEIR
notes: DVD-Ig, outer AB011 / inner AB005
As for B1, in the assay with Recombinant Human IGF1R, the Kd turned out to be 1.5 nM, the koff was determined as 7e-05 s⁻¹ and the kon came out at 46000 M⁻¹ s⁻¹. In addition, in assay [1], the binding result is “no binding (tested: 10-200 nM)”.

B2: DVD2325 (bispecific antibody)
VH: EVQLVQSGGGLVKPGGSLRLSCAASGFTFSSFAMHWVRQAPGKGLEWISVIDTRGATYYADSVKGRFTISRDNAKNSLYLQMNSLRAEDTAVYYCARLGNFYYGMDVWGQGTTVTVSSASTKGPEVQLVQSGGGLVKPGGSLRLSCAASGFTFSSYAMHWVRQAPGKGLEWVAVISYDGSNKYYADSVKGRFTISRDNSKNTLYLQMNSLRAEDTAVYYCARFSGWPNNYYYYGMDVWGQGTTVTVSS
VL: EIVLTQSPGTLSVSPGERATLSCRASQSIGSSLHWYQQKPGQAPRLLIKYASQSLSGIPDRFSGSGSGTDFTLTISRLEPEDFAVYYCHQSSRLPHTFGQGTKVEIKRTVAAPDVVMTQSPLSLPVTPGEPASISCRSSQSLLHSNGFNYVDWYLQKPGQSPHLLIYFGSYRASGVPDRFSGSGSGTDFTLKISRVEAEDVGVYYCMQALQTPPWTFGQGTKVEIR
notes: DVD-Ig, outer AB077 / inner AB005
B2: in the assay with Recombinant Human IGF1R, the Kd was 0.11 nM, the koff turned out to be 6.6e-06 s⁻¹ and the kon came out at 60000 M⁻¹ s⁻¹. In assay [1], the binding result is “no binding (tested: 10-200 nM)”.

B3: DVD2304 (bispecific antibody)
VH: EVQLVESGGGLVQPGGSLRLSCAASGFSLTNYGVHWVRQAPGKGLEWLGVGWSGGNTDYNTPFTSRLTINKDNSKNTVYLQMNSLRAEDTAVYYCARALTWYDYEFAYWGQGTLVTVSSASTKGPEVQLVQSGAEVKKPGSSVKVSCKASGGTFSSYAISWVRQAPGQGLEWMGGIIPIFGTANYAQKFQGRVTITADKSTSTAYMELSSLRSEDTAVYYCARAPLRFLEWSTQDHYYYYYMDVWGKGTTVTVSS
VL: DILLTQSPGTLSLSPGERATLSCRASQSIYTNIHWYQQKPGQAPRLLIKYASESISGIPDRFSGSGSGTDFTLTISRLEPEDFAVYYCQQNLNWPTTFGQGTKLEIKRTVAAPSSELTQDPAVSVALGQTVRITCQGDSLRSYYATWYQQKPGQAPILVIYGENKRPSGIPDRFSGSSSGNTASLTITGAQAEDEADYYCKSRDGSGQHLVFGGGTKLTVL
notes: DVD-Ig, outer AB400 / inner AB075
With B3, in the assay with EGFR on the cell surface, the “GEO MEAN” value turned out to be 512.

B4: DVD2306 (bispecific antibody)
VH: EVQLVESGGGLVQPGGSLRLSCAASGFSLTNYGVHWVRQAPGKGLEWLGVGWSGGNTDYNTPFTSRLTINKDNSKNTVYLQMNSLRAEDTAVYYCARALTWYDYEFAYWGQGTLVTVSSASTKGPEVQLVQSGGGLVKPGGSLRLSCAASGFTFSSFAMHWVRQAPGKGLEWISVIDTRGATYYADSVKGRFTISRDNAKNSLYLQMNSLRAEDTAVYYCARLGNFYYGMDVWGQGTTVTVSS
VL: DILLTQSPGTLSLSPGERATLSCRASQSIYTNIHWYQQKPGQAPRLLIKYASESISGIPDRFSGSGSGTDFTLTISRLEPEDFAVYYCQQNLNWPTTFGQGTKLEIKRTVAAPEIVLTQSPGTLSVSPGERATLSCRASQSIGSSLHWYQQKPGQAPRLLIKYASQSLSGIPDRFSGSGSGTDFTLTISRLEPEDFAVYYCHQSSRLPHTFGQGTKVEIK
notes: DVD-Ig, outer AB400 / inner AB077
Consider B4, for which the “GEO MEAN” value with EGFR on the cell surface was 546.

B5: DVD2317 (bispecific antibody)
VH: EVQLVESGGGLVQPGGSLRLSCAASGFTFTDYTMDWVRQAPGKGLEWVADVNPNSGGSIYNQRFKGRFTLSVDRSKNTLYLQMNSLRAEDTAVYYCARNLGPSFYFDYWGQGTLVTVSSASTKGPEVQLVQSGGGLVKPGGSLRLSCAASGFTFSSYAMHWVRQAPGKGLEWVAVISYDGSNKYYADSVKGRFTISRDNSKNTLYLQMNSLRAEDTAVYYCARFSGWPNNYYYYGMDVWGQGTTVTVSS
VL: DIQMTQSPSSLSASVGDRVTITCKASQDVSIGVAWYQQKPGKAPKLLIYSASYRYTGVPSRFSGSGSGTDFTLTISSLQPEDFATYYCQQYYIYPYTFGQGTKVEIKRTVAAPDVVMTQSPLSLPVTPGEPASISCRSSQSLLHSNGFNYVDWYLQKPGQSPHLLIYFGSYRASGVPDRFSGSGSGTDFTLKISRVEAEDVGVYYCMQALQTPPWTFGQGTKVEIR
notes: DVD-Ig, outer AB080 / inner AB005
With B5, in assay [1], the binding result was “no binding (tested: 10-200 nM)”.

B6: DVD2335 (bispecific antibody)
VH: QVQLQQWGAGLLKPSETLSLTCAVYGGSFSGYYWSWIRQPPGKGLEWIGEINHSGSTNYNPSLKSRVTISVETSKNQFSLKLSSVTAADTAVYYCARDKWTWYFDLWGRGTLVTVSSASTKGPQVQLQESGPGLVKPSEILSLTCTVSGGSISSHYWSWVRQPPGKGLEWIGYIYYSGSTNYNPSLKSRVTISVDTSKNQFSLNLSSVTAADTAVYYCARIPNYYDRSGYYPGYWYFDLWGRGTLVTVSS
VL: DIEMTQSPDSLAVSLGERATINCRSSQSVLYSSSNRNYLAWYQQNPGQPPKLLIYWASTRESGVPDRFSGSGSGTDFTLTISSLQAEDVAVYYCQQYYSTPRTFGQGTKVEIKRTVAAPQAVLTQPSSLSAPPGASASLTCTLRSGFNVDSYRISWYQQKPGSPPQYLLRYKSDSDKQQGSGVPSRFSGSKDASANAGILLISGLQSEDEADYYCMIWHSSAWVFGGGTKLTVL
notes: DVD-Ig, outer AB062 / inner AB034
B6: in assay [1], the Kd turned out to be 39 nM, the koff came out at 0.0051 s⁻¹ and the kon was 130000 M⁻¹ s⁻¹.

B7: DVD2298 (bispecific antibody)
VH: EVQLVESGGGLVQPGGSLRLSCAASGFSLTNYGVHWVRQAPGKGLEWLGVGWSGGNTDYNTPFTSRLTINKDNSKNTVYLQMNSLRAEDTAVYYCARALTWYDYEFAYWGQGTLVTVSSASTKGPEVQLVQSGGGLVKPGGSLRLSCAASGFTFSSYAMHWVRQAPGKGLEWVAVISYDGSNKYYADSVKGRFTISRDNSKNTLYLQMNSLRAEDTAVYYCARFSGWPNNYYYYGMDVWGQGTTVTVSS
VL: DILLTQSPGTLSLSPGERATLSCRASQSIYTNIHWYQQKPGQAPRLLIKYASESISGIPDRFSGSGSGTDFTLTISRLEPEDFAVYYCQQNLNWPTTFGQGTKLEIKRTVAAPDVVMTQSPLSLPVTPGEPASISCRSSQSLLHSNGFNYVDWYLQKPGQSPHLLIYFGSYRASGVPDRFSGSGSGTDFTLKISRVEAEDVGVYYCMQALQTPPWTFGQGTKVEIR
notes: DVD-Ig, outer AB400 / inner AB005
As for B7, the “GEO MEAN” value in the assay with EGFR on the cell surface is 400.

B8: DVD2213 (bispecific antibody)
VH: QVQLQESGPGLVKPSEILSLTCTVSGGSISSHYWSWVRQPPGKGLEWIGYIYYSGSTNYNPSLKSRVTISVDTSKNQFSLNLSSVTAADTAVYYCARIPNYYDRSGYYPGYWYFDLWGRGTLVTVSSASTKGPSVFPLAPEVQLVQSGGGLVKPGGSLRLSCAASGFTFSSYAMHWVRQAPGKGLEWVAVISYDGSNKYYADSVKGRFTISRDNSKNTLYLQMNSLRAEDTAVYYCARFSGWPNNYYYYGMDVWGQGTTVTVSS
VL: QAVLTQPSSLSAPPGASASLTCTLRSGFNVDSYRISWYQQKPGSPPQYLLRYKSDSDKQQGSGVPSRFSGSKDASANAGILLISGLQSEDEADYYCMIWHSSAWVFGGGTKLTVLRTVAAPDVVMTQSPLSLPVTPGEPASISCRSSQSLLHSNGFNYVDWYLQKPGQSPHLLIYFGSYRASGVPDRFSGSGSGTDFTLKISRVEAEDVGVYYCMQALQTPPWTFGQGTKVEIR
notes: DVD-Ig, outer AB034 / inner AB005
In the case of B8, the Kd in assay [2] came to 18 nM.

B9: DVD2346 (bispecific antibody)
VH: QVQLQESGPGLVKPSQTLSLTCTVSGYSISSDFAWNWIRQPPGKGLEWMGYISYSGNTRYQPSLKSRITISRDTSKNQFFLKLNSVTAADTATYYCVTAGRGFPYWGQGTLVTVSSASTKGPEVQLVQSGGGLVKPGGSLRLSCAASGFTFSSFAMHWVRQAPGKGLEWISVIDTRGATYYADSVKGRFTISRDNAKNSLYLQMNSLRAEDTAVYYCARLGNFYYGMDVWGQGTTVTVSS
VL: DIQMTQSPSSMSVSVGDRVTITCHSSQDINSNIGWLQQKPGKSFKGLIYHGTNLDDGVPSRFSGSGSGTDYTLTISSLQPEDFATYYCVQYAQFPWTFGGGTKLEIKRTVAAPEIVLTQSPGTLSVSPGERATLSCRASQSIGSSLHWYQQKPGQAPRLLIKYASQSLSGIPDRFSGSGSGTDFTLTISRLEPEDFAVYYCHQSSRLPHTFGQGTKVEIK
With B9, the “GEO MEAN” value with EGFR on the cell surface was determined as 24.1.

B10: DVD2342 (bispecific antibody)
VH: QVQLQESGPGLVKPSQTLSLTCTVSGYSISSDFAWNWIRQPPGKGLEWMGYISYSGNTRYQPSLKSRITISRDTSKNQFFLKLNSVTAADTATYYCVTAGRGFPYWGQGTLVTVSSASTKGPEVQLVESGGGLVQPGGSLRLSCAASGFTFTDYTMDWVRQAPGKGLEWVADVNPNSGGSIYNQRFKGRFTLSVDRSKNTLYLQMNSLRAEDTAVYYCARNLGPSFYFDYWGQGTLVTVSS
VL: DIQMTQSPSSMSVSVGDRVTITCHSSQDINSNIGWLQQKPGKSFKGLIYHGTNLDDGVPSRFSGSGSGTDYTLTISSLQPEDFATYYCVQYAQFPWTFGGGTKLEIKRTVAAPDIQMTQSPSSLSASVGDRVTITCKASQDVSIGVAWYQQKPGKAPKLLIYSASYRYTGVPSRFSGSGSGTDFTLTISSLQPEDFATYYCQQYYIYPYTFGQGTKVEIK
B10: the “GEO MEAN” value in the assay with EGFR on the cell surface was 44.8.

B11: DVD2302 (bispecific antibody)
VH: EVQLVESGGGLVQPGGSLRLSCAASGFSLTNYGVHWVRQAPGKGLEWLGVGWSGGNTDYNTPFTSRLTINKDNSKNTVYLQMNSLRAEDTAVYYCARALTWYDYEFAYWGQGTLVTVSSASTKGPEVQLVESGGGLVQPGGSLRLSCAASGFTFTDYTMDWVRQAPGKGLEWVADVNPNSGGSIYNQRFKGRFTLSVDRSKNTLYLQMNSLRAEDTAVYYCARNLGPSFYFDYWGQGTLVTVSS
VL: DILLTQSPGTLSLSPGERATLSCRASQSIYTNIHWYQQKPGQAPRLLIKYASESISGIPDRFSGSGSGTDFTLTISRLEPEDFAVYYCQQNLNWPTTFGQGTKLEIKRTVAAPDIQMTQSPSSLSASVGDRVTITCKASQDVSIGVAWYQQKPGKAPKLLIYSASYRYTGVPSRFSGSGSGTDFTLTISSLQPEDFATYYCQQYYIYPYTFGQGTKVEIK
notes: DVD-Ig, outer AB400 / inner AB080
As for B11, in the assay with EGFR on the cell surface, the “GEO MEAN” value is 563.
